Laboratory results from paper PMC8748767 (Nature Communications, 2022).

B1: Tyrosine hydroxylase deletion mutant with the entire N-terminal removed (THNΔ70) (domain or fragment)
chain: not shown
notes: human tyrosine hydroxylase isoform TH1 with the entire N-terminal tail (residues 1-70) removed; numbers count on: isoform TH1; also called THΔN70; source: recombinant, construct derived from pETMBP1a/TH (Genscript), expressed and purified essentially as TH; not shown: His, N-terminal, cleaved; MBP, N-terminal, cleaved
B2: Tyrosine hydroxylase deletion mutant lacking the N-terminal 43 residues (THNΔ43) (domain or fragment)
chain: not shown
notes: human tyrosine hydroxylase isoform TH1 lacking the N-terminal 43 residues; numbers count on: isoform TH1; source: recombinant, construct derived from pETMBP1a/TH (Genscript), expressed and purified essentially as TH; not shown: His, N-terminal, cleaved; MBP, N-terminal, cleaved
B3: Tyrosine hydroxylase deletion mutant with the first 35 residues deleted (THNΔ35) (domain or fragment)
chain: not shown
notes: human tyrosine hydroxylase isoform TH1 with the first 35 residues deleted; numbers count on: isoform TH1; also called THΔN35; THΔ35; source: recombinant, construct derived from pETMBP1a/TH (Genscript), expressed and purified essentially as TH; not shown: His, N-terminal, cleaved; MBP, N-terminal, cleaved

Molecular target: the molecule itself
Assay: SEC; preparative size-exclusion chromatography, HiLoad Superdex 200 prep grade (1.6 cm × 60 cm), 20 mM Na-Hepes pH 7, 200 mM NaCl

Stoichiometry N, 4:
B1
B2
B3
